The source of these data is paper PMC4703387, “Identification of the Calmodulin-Binding Domains of Fas Death Receptor” (PLoS ONE, 2016).

The target in this experiment is T1, calmodulin, calcium-bound (Ca2+/CaM) (UniProt P0DP23 1-149).
T1 construct: all experiments in the presence of calcium; Used unlabelled or 15N/13C-labelled; also called full-length Ca^2+/CaM
Nature of the experiment: NMR titration; 2D 1H-15N HSQC; unlabelled peptide titrated into 15N-labelled Ca2+/CaM, Ca2+/CaM-N or Ca2+/CaM-C (100-150 uM), 35°C, 50 mM Tris-d11 pH 7.0, 100 mM NaCl, 5 mM CaCl2; Kd by one-site fit of chemical shift changes. Particulars: both partners purified.

B1: FasDD(224-238) peptide (peptide)
peptide: MTLSQVKGFVRKNGV
notes: also called FasDD(228–238); source: synthetic peptide, bought: Genscript (>95% purity)
On to B1, for which the binding result was “binds”.
